Measured values: patent US20210008162A1 (OP T, published 2021)
Where no end group is shown, it is not given here.

Legend:
[1] = target: T1, mouse CD40 on cells (CD40+ T cells / Th40 cells and B cells of NOD mice; mouse CD4+CD40+ cells in culture) (mouse, UniProt P27512 20-289); experiment: KGYY-15 bound to live CD4+CD40+ cells kept in culture for 10 days, percent bound over days post treatment; the text says 'human or mouse' cells
T1 construct: whole, on cells; The target is inferred from CD40+ cells; No purified CD40 was tested; also called CD40 protein
T1 sequence (looked up): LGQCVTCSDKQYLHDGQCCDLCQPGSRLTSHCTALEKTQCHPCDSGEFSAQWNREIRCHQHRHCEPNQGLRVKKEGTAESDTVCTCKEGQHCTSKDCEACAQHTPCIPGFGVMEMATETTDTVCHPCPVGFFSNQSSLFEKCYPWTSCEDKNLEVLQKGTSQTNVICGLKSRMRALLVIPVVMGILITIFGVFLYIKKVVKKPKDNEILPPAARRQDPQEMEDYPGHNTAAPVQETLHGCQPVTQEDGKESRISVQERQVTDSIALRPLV

[2] = target: T2, human CD40 on CD4+CD40+ cells (human, UniProt P25942 21-277); experiment: as above
T2 construct: whole, on cells
T2 sequence (P25942 21-277): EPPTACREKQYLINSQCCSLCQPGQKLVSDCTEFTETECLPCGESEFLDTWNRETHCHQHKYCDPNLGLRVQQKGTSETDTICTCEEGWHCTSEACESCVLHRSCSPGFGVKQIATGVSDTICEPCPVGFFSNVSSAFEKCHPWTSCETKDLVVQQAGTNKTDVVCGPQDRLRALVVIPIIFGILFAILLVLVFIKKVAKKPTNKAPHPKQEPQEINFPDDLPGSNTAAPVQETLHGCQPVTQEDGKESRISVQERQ

Binder: VLQWAKKGYYTMKSN-NH2 (also called 15-mer-Form 1) [KGYY-15 (SEQ ID NO:11)]
- binding result [1]: binds
- binding result [2]: binds
